Measured values: patent publication US20210130437A1 (ALPINE IMMUNE SCIENCES, published 2021)

T1: human TIGIT expressed on cells (Jurkat/TIGIT cells) (human, UniProt Q495A1 22-244)
T1 sequence: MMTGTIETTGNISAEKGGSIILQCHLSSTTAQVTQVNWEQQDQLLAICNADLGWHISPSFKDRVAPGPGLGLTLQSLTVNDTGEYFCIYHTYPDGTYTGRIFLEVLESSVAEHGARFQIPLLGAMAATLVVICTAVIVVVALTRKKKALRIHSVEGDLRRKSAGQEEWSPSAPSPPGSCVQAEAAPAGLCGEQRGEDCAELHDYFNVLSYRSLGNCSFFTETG


Assays:
[1] = target: T1, human TIGIT expressed on cells …; assay: flow cytometry, Jurkat/TIGIT cells
[2] = target: T2, human PD-1 expressed on cells (Jurkat/PD-1 cells) (human, UniProt Q15116 21-288); assay: flow cytometry, Jurkat/PD-1 cells
T2 construct: also called PDCD1

[3] = target: T3, PD-1 stably expressed on Jurkat/IL-2 reporter cells (Jurkat/PD-1) (human, UniProt Q15116 21-288); assay: culture supernatant on PD-1+ Jurkat cells, surface bound PD-L2 detected with anti-his-APC by flow cytometry
T3 construct: also called Jurkat/PD-1 cells; PD-1+ Jurkat cells
T3 sequence (Q15116 21-288): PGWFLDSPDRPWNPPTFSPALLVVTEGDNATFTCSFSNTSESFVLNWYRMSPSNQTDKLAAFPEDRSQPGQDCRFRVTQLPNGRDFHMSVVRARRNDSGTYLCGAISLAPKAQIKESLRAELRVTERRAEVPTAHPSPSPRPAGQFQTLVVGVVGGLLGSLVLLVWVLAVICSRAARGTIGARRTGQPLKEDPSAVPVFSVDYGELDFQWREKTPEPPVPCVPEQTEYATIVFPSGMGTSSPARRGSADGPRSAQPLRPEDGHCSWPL

T2 sequence (Q15116 21-288): as above

Binder	MFI at 6.25 nM [1] [MFI]	MFI at 6.25 nM [2] [MFI]	binding result [3]
PD-L2/CD155 Stack 2 (Fc fusion, Homodimer; also called (PD-L2 IgV) (G4S)2 Fc (G4S)3 (CD155 IgV)) LFTVTVPKELYIIEQGSNVTLECNFDTGSHVNLGAITASLQKVENDASPHRERATLLEEQLPLGRALFHIPQVQVRDEGQYRCIIIYGDAWDYKYLTLKVKAGGGGSGGGGSEPKSSDKTHTCPPCPAPEAEGAPSVFLFPPKPKDTLMISRTPEVTCVVVDVSHEDPEVKFNWYVDGVEVHNAKTKPREEQYNSTYRVVSVLTVLHQDWLNGKEYKCKVSNKALPAPIEKTISKAKGQPREPQVYTLPPSRDELTKNQVSLTCLVKGFYPSDIAVEWESNGQPENNYKTTPPVLDSDGSFFLYSKLTVDKSRWQQGNVFSCSVMHEALHNHYTQKSLSLSPGKGGGGSGGGGSGGGGSWPPPGTGDVVVQAPTQVSGFLGDSVTLPCYLQVPNMEVTHVSQLTWARHGESGSMAVFHQTQGPWYAESKRLEFVAARLGAELRNASLRMFGLRVEDEGNYTCQFVTFPQRSRSVDIWLRVL	9100	16300	
PD-L2/CD155 Stack 4 (Fc fusion, Homodimer; also called (PD-L2 IgV) (G4S)3 (CD155 IgV) (G4S)2 Fc) LFTVTVPKELYIIEQGSNVTLECNFDTGSHVNLGAITASLQKVENDASPHRERATLLEEQLPLGRALFHIPQVQVRDEGQYRCIIIYGDAWDYKYLTLKVKAGGGGSGGGGSGGGGSWPPPGTGDVVVQAPTQVSGFLGDSVTLPCYLQVPNMEVTHVSQLTWARHGESGSMAVFHQTQGPWYAESKRLEFVAARLGAELRNASLRMFGLRVEDEGNYTCQFVTFPQRSRSVDIWLRVLGGGGSGGGGSEPKSSDKTHTCPPCPAPEAEGAPSVFLFPPKPKDTLMISRTPEVTCVVVDVSHEDPEVKFNWYVDGVEVHNAKTKPREEQYNSTYRVVSVLTVLHQDWLNGKEYKCKVSNKALPAPIEKTISKAKGQPREPQVYTLPPSRDELTKNQVSLTCLVKGFYPSDIAVEWESNGQPENNYKTTPPVLDSDGSFFLYSKLTVDKSRWQQGNVFSCSVMHEALHNHYTQKSLSLSPGK	14500	9220	
PD-L2/CD155 Stack 1 (Fc fusion, Homodimer; also called (CD155 IgV)-(G4S)2-Fc-(G4S)3 (PD-L2 IgV)) WPPPGTGDVVVQAPTQVSGFLGDSVTLPCYLQVPNMEVTHVSQLTWARHGESGSMAVFHQTQGPWYAESKRLEFVAARLGAELRNASLRMFGLRVEDEGNYTCQFVTFPQRSRSVDIWLRVLGGGGSGGGGSEPKSSDKTHTCPPCPAPEAEGAPSVFLFPPKPKDTLMISRTPEVTCVVVDVSHEDPEVKFNWYVDGVEVHNAKTKPREEQYNSTYRVVSVLTVLHQDWLNGKEYKCKVSNKALPAPIEKTISKAKGQPREPQVYTLPPSRDELTKNQVSLTCLVKGFYPSDIAVEWESNGQPENNYKTTPPVLDSDGSFFLYSKLTVDKSRWQQGNVFSCSVMHEALHNHYTQKSLSLSPGKGGGGSGGGGSGGGGSLFTVTVPKELYIIEQGSNVTLECNFDTGSHVNLGAITASLQKVENDASPHRERATLLEEQLPLGRALFHIPQVQVRDEGQYRCIIIYGDAWDYKYLTLKVKA	19900		
Wild Type CD155 full ECD Fc (Fc fusion, not shown: Fc and linker not specified) WPPPGTGDVVVQAPTQVPGFLGDSVTLPCYLQVPNMEVTHVSQLTWARHGESGSMAVFHQTQGPSYSESKRLEFVAARLGAELRNASLRMFGLRVEDEGNYTCLFVTFPQGSRSVDIWLRVLAKPQNTAEVQKVQLTGEPVPMARCVSTGGRPPAQITWHSDLGGMPNTSQVPGFLSGTVTVTSLWILVPSSQVDGKNVTCKVEHESFEKPQLLTVNLTVYYPPEVSISGYDNNWYLGQNEATLTCDARSNPEPTGYNWSTTMGPLPPFAVAQGAQLLIRPVDKPINTTLICNVTNALGARQAELTVQVKEGPPSEHSGISRN		64	
PD-L2 SIP with wildtype PD-L2 IgV (SEQ ID NO:115), Avitag and His tag (ligand, also called PD-L2 secreted immunomodulatory protein) LFTVTVPKELYIIEHGSNVTLECNFDTGSHVNLGAITASLQKVENDTSPHRERATLLEEQLPLGKASFHIPQVQVRDEGQYQCIIIYGVAWDYKYLTLKVKAGLNDIFEAQKIEWHEHHHHHH			binds
PD-L2 SIP with variant PD-L2 IgV H15Q,T47A,S67L,R76G,Q82R,V89D (SEQ ID NO:342), Avitag and His tag (ligand, also called variant PD-L2 SIP) LFTVTVPKELYIIEQGSNVTLECNFDTGSHVNLGAITASLQKVENDASPHRERATLLEEQLPLGKALFHIPQVQVGDEGQYRCIIIYGDAWDYKYLTLKVKAGLNDIFEAQKIEWHEHHHHHH			binds
PD-L2 SIP with variant PD-L2 IgV H15Q,T47A,K65R,S67L,Q82R,V89D (SEQ ID NO:328), Avitag and His tag (ligand, also called variant PD-L2 SIP) LFTVTVPKELYIIEQGSNVTLECNFDTGSHVNLGAITASLQKVENDASPHRERATLLEEQLPLGRALFHIPQVQVRDEGQYRCIIIYGDAWDYKYLTLKVKAGLNDIFEAQKIEWHEHHHHHH			binds
PD-L2/CD155 Stack 6 (Fc fusion, Homodimer; also called Fc (G4S)3 (PD-L2 IgV) (G4S)3 (CD155 IgV)) EPKSSDKTHTCPPCPAPEAEGAPSVFLFPPKPKDTLMISRTPEVTCVVVDVSHEDPEVKFNWYVDGVEVHNAKTKPREEQYNSTYRVVSVLTVLHQDWLNGKEYKCKVSNKALPAPIEKTISKAKGQPREPQVYTLPPSRDELTKNQVSLTCLVKGFYPSDIAVEWESNGQPENNYKTTPPVLDSDGSFFLYSKLTVDKSRWQQGNVFSCSVMHEALHNHYTQKSLSLSPGKGGGGSGGGGSGGGGSLFTVTVPKELYIIEQGSNVTLECNFDTGSHVNLGAITASLQKVENDASPHRERATLLEEQLPLGRALFHIPQVQVRDEGQYRCIIIYGDAWDYKYLTLKVKAGGGGSGGGGSGGGGSWPPPGTGDVVVQAPTQVSGFLGDSVTLPCYLQVPNMEVTHVSQLTWARHGESGSMAVFHQTQGPWYAESKRLEFVAARLGAELRNASLRMFGLRVEDEGNYTCQFVTFPQRSRSVDIWLRVL	9970	66	
PD-L2/CD155 Stack 5 (Fc fusion, Homodimer; also called Fc (G4S)3 (CD155 IgV) (G4S)3 (PD-L2 IgV)) EPKSSDKTHTCPPCPAPEAEGAPSVFLFPPKPKDTLMISRTPEVTCVVVDVSHEDPEVKFNWYVDGVEVHNAKTKPREEQYNSTYRVVSVLTVLHQDWLNGKEYKCKVSNKALPAPIEKTISKAKGQPREPQVYTLPPSRDELTKNQVSLTCLVKGFYPSDIAVEWESNGQPENNYKTTPPVLDSDGSFFLYSKLTVDKSRWQQGNVFSCSVMHEALHNHYTQKSLSLSPGKGGGGSGGGGSGGGGSWPPPGTGDVVVQAPTQVSGFLGDSVTLPCYLQVPNMEVTHVSQLTWARHGESGSMAVFHQTQGPWYAESKRLEFVAARLGAELRNASLRMFGLRVEDEGNYTCQFVTFPQRSRSVDIWLRVLGGGGSGGGGSGGGGSLFTVTVPKELYIIEQGSNVTLECNFDTGSHVNLGAITASLQKVENDASPHRERATLLEEQLPLGRALFHIPQVQVRDEGQYRCIIIYGDAWDYKYLTLKVKA	5490	108	
Wild Type PD-L2 full ECD Fc (Fc fusion, not shown: Fc and linker not specified) LFTVTVPKELYIIEHGSNVTLECNFDTGSHVNLGAITASLQKVENDTSPHRERATLLEEQLPLGKASFHIPQVQVRDEGQYQCIIIYGVAWDYKYLTLKVKASYRKINTHILKVPETDEVELTCQATGYPLAEVSWPNVSVPANTSHSRTPEGLYQVTSVLRLKPPPGRNFSCVFWNTHVRELTLASIDLQSQMEPRTHPT	46		
PD-L2/CD155 Stack 3 (Fc fusion, Homodimer; also called (CD155 IgV) (G4S)3 (PD-L2 IgV) (G4S)2 Fc) WPPPGTGDVVVQAPTQVSGFLGDSVTLPCYLQVPNMEVTHVSQLTWARHGESGSMAVFHQTQGPWYAESKRLEFVAARLGAELRNASLRMFGLRVEDEGNYTCQFVTFPQRSRSVDIWLRVLGGGGSGGGGSGGGGSLFTVTVPKELYIIEQGSNVTLECNFDTGSHVNLGAITASLQKVENDASPHRERATLLEEQLPLGRALFHIPQVQVRDEGQYRCIIIYGDAWDYKYLTLKVKAGGGGSGGGGSEPKSSDKTHTCPPCPAPEAEGAPSVFLFPPKPKDTLMISRTPEVTCVVVDVSHEDPEVKFNWYVDGVEVHNAKTKPREEQYNSTYRVVSVLTVLHQDWLNGKEYKCKVSNKALPAPIEKTISKAKGQPREPQVYTLPPSRDELTKNQVSLTCLVKGFYPSDIAVEWESNGQPENNYKTTPPVLDSDGSFFLYSKLTVDKSRWQQGNVFSCSVMHEALHNHYTQKSLSLSPGK	22300	91	
